Measured values reported in paper PMC3905869.

Experiments:
VirB delta C [1] = target: T1, VirB delta C (Shigella flexneri, UniProt P0A247 1-250); assay: EMSA with self-competition
T1 sequence: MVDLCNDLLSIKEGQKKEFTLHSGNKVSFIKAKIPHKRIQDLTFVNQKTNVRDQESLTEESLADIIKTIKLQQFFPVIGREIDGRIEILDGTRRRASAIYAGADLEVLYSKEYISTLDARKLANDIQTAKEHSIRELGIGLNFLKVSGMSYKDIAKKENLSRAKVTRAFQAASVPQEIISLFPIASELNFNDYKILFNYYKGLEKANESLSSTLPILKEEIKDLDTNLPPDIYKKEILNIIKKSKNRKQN

VirB FL [2] = target: T2, VirB FL (Shigella flexneri, UniProt P0A247 1-309); assay: EMSA with self-competition
T2 sequence: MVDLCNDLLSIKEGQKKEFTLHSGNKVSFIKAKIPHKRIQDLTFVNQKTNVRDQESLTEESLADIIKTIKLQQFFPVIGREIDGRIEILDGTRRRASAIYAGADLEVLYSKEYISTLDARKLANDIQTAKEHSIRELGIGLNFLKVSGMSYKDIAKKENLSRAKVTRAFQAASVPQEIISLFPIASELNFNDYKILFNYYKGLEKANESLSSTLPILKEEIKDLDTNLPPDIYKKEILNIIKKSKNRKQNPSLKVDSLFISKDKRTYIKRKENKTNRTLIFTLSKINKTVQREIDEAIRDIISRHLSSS

VirB delta N [3] = target: T3, VirB delta N (Shigella flexneri, UniProt P0A247 129-309); assay: EMSA with self-competition
T3 sequence: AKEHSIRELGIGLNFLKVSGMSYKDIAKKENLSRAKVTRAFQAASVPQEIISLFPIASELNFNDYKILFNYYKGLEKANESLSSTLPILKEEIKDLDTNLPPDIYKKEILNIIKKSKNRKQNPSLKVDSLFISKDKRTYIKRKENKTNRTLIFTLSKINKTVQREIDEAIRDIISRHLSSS

VirB core (HTH domain) = target: T4, VirB core (HTH domain) (Shigella flexneri, UniProt P0A247 129-250); assay: fluorescence anisotropy
T4 sequence: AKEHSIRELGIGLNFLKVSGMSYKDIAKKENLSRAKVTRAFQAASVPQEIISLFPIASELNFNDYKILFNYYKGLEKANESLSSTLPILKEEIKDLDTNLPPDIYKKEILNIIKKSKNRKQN

VirB delta C [4] = target: T1, VirB delta C; assay: fluorescence anisotropy
VirB FL [5] = target: T2, VirB FL; assay: fluorescence anisotropy
VirB delta N [6] = target: T3, VirB delta N; assay: fluorescence anisotropy
VirB delta C [7] = target: T1, VirB delta C; assay: competition

B1: icsB-wt (dsDNA)
DNA 1: AAACTCGTTTCATCATGAAATCCCAC
DNA 2: GTGGGATTTCATGATGAAACGAGTTT
binding result (VirB delta C [1]): binds | binding result (VirB FL [2]): binds | binding result (VirB delta N [3]): binds

B2: FAM-icsB-wt-50bp (dsDNA)
DNA 1: CTCGTTTCATCATGAAATCCCACAAGATAAAGTGCCTGATGTATCAGGCT
DNA 2: AGCCTGATACATCAGGCACTTTATCTTGTGGGATTTCATGATGAAACGAG
Kd (VirB core (HTH domain)): 16 ± 3 nM | Kd (VirB delta C [4]): 139 ± 15 nM | Kd (VirB FL [5]): 11 ± 0.3 nM | Kd (VirB delta N [6]): 12 ± 0.3 nM

B3: icsB-mut (dsDNA)
DNA 1: AAACTCGTTTCATCGCTGGGCCCCAC
DNA 2: GTGGGGCCCAGCGATGAAACGAGTTT
binding result (VirB delta C [7]): no binding
